The source of these data is patent EP2658867B1 (Avidbiotics Corp., dated 2018).

Assay [1] has as its target T1, integrin αVβ5 (UniProt P06756 31-992; P18084 24-719).
T1 construct: Coated on the ELISA plate
The experiment in a line: ELISA, integrin coated, anti-MICA-HRP. In general terms: An ELISA detects its analyte on a solid surface through an enzyme-linked reagent.

The target of assay [2] is T2, integrin αVβ3 (UniProt P06756 31-992; P05106 27-718).
T2 construct: Coated on the ELISA plate
Nature of the assay: ELISA, integrin coated, anti-MICA-HRP.

Assay [3] addresses T1, integrin αVβ5. Nature of the assay: phage ELISA, integrin coated, anti-M13-HRP.
For assay [4], the target named is T2, integrin αVβ3. Nature of the assay: phage ELISA, integrin coated, anti-M13-HRP.

T1 sequence (P06756 31-992, chain 1 of 2): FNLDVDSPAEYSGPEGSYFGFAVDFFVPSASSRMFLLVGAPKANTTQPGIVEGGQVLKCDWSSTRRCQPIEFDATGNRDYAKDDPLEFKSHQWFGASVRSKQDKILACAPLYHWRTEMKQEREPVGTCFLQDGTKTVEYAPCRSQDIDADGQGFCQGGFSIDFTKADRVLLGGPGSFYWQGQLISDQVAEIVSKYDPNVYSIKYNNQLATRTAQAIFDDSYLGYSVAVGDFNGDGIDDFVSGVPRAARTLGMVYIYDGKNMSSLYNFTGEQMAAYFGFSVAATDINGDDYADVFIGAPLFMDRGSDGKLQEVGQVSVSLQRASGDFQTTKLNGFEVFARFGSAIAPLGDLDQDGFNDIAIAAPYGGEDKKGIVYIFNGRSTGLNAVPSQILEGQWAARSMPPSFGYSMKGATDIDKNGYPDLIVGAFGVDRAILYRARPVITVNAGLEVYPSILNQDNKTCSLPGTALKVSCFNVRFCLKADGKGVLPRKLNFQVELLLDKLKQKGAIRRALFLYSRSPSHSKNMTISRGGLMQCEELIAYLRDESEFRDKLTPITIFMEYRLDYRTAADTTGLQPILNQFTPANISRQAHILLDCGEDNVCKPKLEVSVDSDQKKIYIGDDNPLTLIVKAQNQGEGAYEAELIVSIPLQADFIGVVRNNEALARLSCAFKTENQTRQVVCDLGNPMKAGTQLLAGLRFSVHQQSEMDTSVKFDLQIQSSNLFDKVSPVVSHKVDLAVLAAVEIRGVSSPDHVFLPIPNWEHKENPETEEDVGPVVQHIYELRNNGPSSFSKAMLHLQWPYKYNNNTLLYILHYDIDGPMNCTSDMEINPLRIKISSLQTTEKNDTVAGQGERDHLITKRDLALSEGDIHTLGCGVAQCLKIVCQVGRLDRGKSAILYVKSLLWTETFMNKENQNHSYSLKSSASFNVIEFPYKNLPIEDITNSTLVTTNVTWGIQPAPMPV
T1 sequence (P18084 24-719, chain 2 of 2): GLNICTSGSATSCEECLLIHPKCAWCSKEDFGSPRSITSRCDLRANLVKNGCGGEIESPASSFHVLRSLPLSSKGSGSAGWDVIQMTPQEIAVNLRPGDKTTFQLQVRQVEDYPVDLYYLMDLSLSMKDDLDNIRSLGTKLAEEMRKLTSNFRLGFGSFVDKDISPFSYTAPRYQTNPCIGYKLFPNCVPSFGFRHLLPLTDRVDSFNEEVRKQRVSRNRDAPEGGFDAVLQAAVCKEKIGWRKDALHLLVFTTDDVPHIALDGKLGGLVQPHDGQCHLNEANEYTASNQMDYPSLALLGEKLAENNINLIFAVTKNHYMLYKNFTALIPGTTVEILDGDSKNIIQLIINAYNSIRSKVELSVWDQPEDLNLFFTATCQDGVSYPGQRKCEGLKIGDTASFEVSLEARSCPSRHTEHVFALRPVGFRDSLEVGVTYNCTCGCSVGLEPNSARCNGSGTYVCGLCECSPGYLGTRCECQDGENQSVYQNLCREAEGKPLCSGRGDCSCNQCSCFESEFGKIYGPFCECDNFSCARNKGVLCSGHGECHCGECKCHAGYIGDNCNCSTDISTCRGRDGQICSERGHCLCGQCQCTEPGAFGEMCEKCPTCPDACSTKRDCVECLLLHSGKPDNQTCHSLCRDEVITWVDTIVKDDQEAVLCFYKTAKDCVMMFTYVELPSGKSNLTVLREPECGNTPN
T2 sequence (P06756 31-992, chain 1 of 2): as the sequence (P06756 31-992, chain 1 of 2) above
T2 sequence (P05106 27-718, chain 2 of 2): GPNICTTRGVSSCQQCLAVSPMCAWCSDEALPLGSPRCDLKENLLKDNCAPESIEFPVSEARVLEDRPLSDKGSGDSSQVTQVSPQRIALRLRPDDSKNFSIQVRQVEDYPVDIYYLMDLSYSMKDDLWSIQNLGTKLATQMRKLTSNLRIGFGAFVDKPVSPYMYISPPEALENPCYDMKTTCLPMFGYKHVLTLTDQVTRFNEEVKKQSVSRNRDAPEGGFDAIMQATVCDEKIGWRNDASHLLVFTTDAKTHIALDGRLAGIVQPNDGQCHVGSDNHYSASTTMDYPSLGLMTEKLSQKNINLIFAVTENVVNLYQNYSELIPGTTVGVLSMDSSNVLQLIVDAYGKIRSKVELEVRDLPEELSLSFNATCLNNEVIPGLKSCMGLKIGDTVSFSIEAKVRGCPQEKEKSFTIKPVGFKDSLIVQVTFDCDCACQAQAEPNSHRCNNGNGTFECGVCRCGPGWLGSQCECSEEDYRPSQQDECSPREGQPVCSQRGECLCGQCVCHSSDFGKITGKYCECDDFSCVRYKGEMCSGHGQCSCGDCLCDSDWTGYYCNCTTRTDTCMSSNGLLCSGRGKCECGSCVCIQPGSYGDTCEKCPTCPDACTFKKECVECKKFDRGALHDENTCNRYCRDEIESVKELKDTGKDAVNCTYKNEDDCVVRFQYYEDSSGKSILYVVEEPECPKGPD

B1: soluble MICA generated by pKK37 (loop 3.2 in loop 1) (designed binder)
chain: HHHHHHEPHSLRYNLTVLSWDGSVQSGFLTEVHLDGQPFLRCDRQKCRAKPQGQWAEDVLGNKTWDRETRDLTGNGKDLRMTLAHIKDQKEGLHSLQEIRVCEIHEDNSTRSSQHFYYDGELFLSQNLETEEWTMPQSSRAQTLAMNVRNFLKEDAMKTKTHYHAMHADCLQELRRYLKSGVVLRRTVPPMVNVTRTSRGDHPRTQVTCRASGFYPWNITLSWRQDGVSLSHDTQQWGDVLPDGNGTYQTWVATRICQGEEQRFTCYMEHSGNHSTHPVPSGK
As for B1, in the assay with integrin αVβ5 [1], the signal came out at 0.779 OD and the signal/ng was determined as 22.4 signal/ng. In the assay with integrin αVβ3 [2], this molecule gave a signal of 0.777 OD and a signal/ng of 22.4 signal/ng.

B2: soluble MICA generated by pKK36 (loop 3.1 in loop 1) (designed binder)
chain: HHHHHHEPHSLRYNLTVLSWDGSVQSGFLTEVHLDGQPFLRCDRQKCRAKPQGQWAEDVLGNKTWDRETRDLTGNGKDLRMTLAHIKDQKEGLHSLQEIRVCEIHEDNSTRSSQHFYYDGELFLSQNLETEEWTMPQSSRAQTLAMNVRNFLKEDAMKTKTHYHAMHADCLQELRRYLKSGVVLRRTVPPMVNVTSRGDHPRTQVTCRASGFYPWNITLSWRQDGVSLSHDTQQWGDVLPDGNGTYQTWVATRICQGEEQRFTCYMEHSGNHSTHPVPSGK
Regarding B2, the signal came to 0.526 OD with integrin αVβ5 [1] and 0.55 OD in the assay with integrin αVβ3 [2]. In addition, the signal/ng was 18.1 signal/ng with integrin αVβ5 [1] and 19 signal/ng with integrin αVβ3 [2].

B3: soluble MICA generated by pKK35 (His10sp in loop 3) (designed binder)
chain: EPHSLRYNLTVLSWDGSVQSGFLTEVHLDGQPFLRCDRQKCRAKPQGQWAEDVLGNKTWDRETRDLTGNGKDLRMTLAHIKDQKEGLHSLQEIRVCEIHEDNSTRSSQHFYYDGELFLSQNLETKEWTMPQSSRAQTLAMNVRNFLKEDAMKTKTHYHAMHADCLQELRRYLKSGVVLRRTVPPMVNVTRSEASEGNITVTCRASGFYPWNITLSWRQDGVSLSHDTQQWGDVLPDGNGTYQTWVATRISGGSGGGSHHHHHHHHHHSGGSGGGCYMEHSGNHSTHPVPSGK
As to B3, in the assay with integrin αVβ5 [1], the signal was found to be 0.392 OD and the signal/ng worked out at 2.31 signal/ng. In the assay with integrin αVβ3 [2], the signal was determined as 0.419 OD and the signal/ng is 2.46 signal/ng.

B4: soluble MICA generated by pKK49 (extended loop 3.3sp in loop 3) (designed binder)
chain: EPHSLRYNLTVLSWDGSVQSGFLTEVHLDGQPFLRCDRQKCRAKPQGQWAEDVLGNKTWDRETRDLTGNGKDLRMTLAHIKDQKEGLHSLQEIRVCEIHEDNSTRSSQHFYYDGELFLSQNLETKEWTMPQSSRAQTLAMNVRNFLKEDAMKTKTHYHAMHADCLQELRRYLKSGVVLRRTVPPMVNVTRSEASEGNITVTCRASGFYPWNITLSWRQDGVSLSHDTQQWGDVLPDGNGTYQTWVATRISGGSGGGSRVPRGDSDLTSGGSGGGCYMEHSGNHSTHPVPSGK
In the assay with integrin αVβ5 [1], B4 gave a signal of 0.478 OD and a signal/ng of 5.51 signal/ng. In the assay with integrin αVβ3 [2], the signal is 0.508 OD and the signal/ng is 5.86 signal/ng.

B5: soluble MICA generated by pKK50 (extended loop 5.1sp in loop 3) (designed binder)
chain: EPHSLRYNLTVLSWDGSVQSGFLTEVHLDGQPFLRCDRQKCRAKPQGQWAEDVLGNKTWDRETRDLTGNGKDLRMTLAHIKDQKEGLHSLQEIRVCEIHEDNSTRSSQHFYYDGELFLSQNLETKEWTMPQSSRAQTLAMNVRNFLKEDAMKTKTHYHAMHADCLQELRRYLKSGVVLRRTVPPMVNVTRSEASEGNITVTCRASGFYPWNITLSWRQDGVSLSHDTQQWGDVLPDGNGTYQTWVATRISGGSGGGSVTRGDTFTQSSGGSGGGCYMEHSGNHSTHPVPSGK
In the case of B5, in the assay with integrin αVβ5 [1], the signal worked out at 0.721 OD and the signal/ng amounted to 7.73 signal/ng. In the assay with integrin αVβ3 [2], this molecule showed a signal of 0.546 OD and a signal/ng of 5.85 signal/ng.

B6: soluble MICA generated by pKK51 (extended loop 5.3sp in loop 3) (designed binder)
chain: EPHSLRYNLTVLSWDGSVQSGFLTEVHLDGQPFLRCDRQKCRAKPQGQWAEDVLGNKTWDRETRDLTGNGKDLRMTLAHIKDQKEGLHSLQEIRVCEIHEDNSTRSSQHFYYDGELFLSQNLETKEWTMPQSSRAQTLAMNVRNFLKEDAMKTKTHYHAMHADCLQELRRYLKSGVVLRRTVPPMVNVTRSEASEGNITVTCRASGFYPWNITLSWRQDGVSLSHDTQQWGDVLPDGNGTYQTWVATRISGGSGGGSHLARGDDLTYSGGSGGGCYMEHSGNHSTHPVPSGK
For B6, in the assay with integrin αVβ5 [1], the signal worked out at 1.05 OD and the signal/ng was 10.9 signal/ng. In the assay with integrin αVβ3 [2], this molecule showed a signal of 0.694 OD and a signal/ng of 7.2 signal/ng.

B7: soluble MICA generated by pKK48 (extended loop 3.2sp in loop 3) (designed binder)
chain: EPHSLRYNLTVLSWDGSVQSGFLTEVHLDGQPFLRCDRQKCRAKPQGQWAEDVLGNKTWDRETRDLTGNGKDLRMTLAHIKDQKEGLHSLQEIRVCEIHEDNSTRSSQHFYYDGELFLSQNLETKEWTMPQSSRAQTLAMNVRNFLKEDAMKTKTHYHAMHADCLQELRRYLKSGVVLRRTVPPMVNVTRSEASEGNITVTCRASGFYPWNITLSWRQDGVSLSHDTQQWGDVLPDGNGTYQTWVATRISGGSGGGSTSRGDHPRTQSGGSGGGCYMEHSGNHSTHPVPSGK
For the molecule B7, in the assay with integrin αVβ5 [1], the signal came to 0.604 OD and the signal/ng worked out at 7.68 signal/ng. In the assay with integrin αVβ3 [2], this molecule came in with a signal of 0.478 OD and a signal/ng of 6.08 signal/ng.

B8: soluble MICA generated by pKK38 (loop 3.3 in loop 1) (designed binder)
chain: HHHHHHEPHSLRYNLTVLSWDGSVQSGFLTEVHLDGQPFLRCDRQKCRAKPQGQWAEDVLGNKTWDRETRDLTGNGKDLRMTLAHIKDQKEGLHSLQEIRVCEIHEDNSTRSSQHFYYDGELFLSQNLETEEWTMPQSSRAQTLAMNVRNFLKEDAMKTKTHYHAMHADCLQELRRYLKSGVVLRRTVPPMVNVTRVPRGDSDLTVTCRASGFYPWNITLSWRQDGVSLSHDTQQWGDVLPDGNGTYQTWVATRICQGEEQRFTCYMEHSGNHSTHPVPSGK
B8: the signal with integrin αVβ5 [1] and in the assay with integrin αVβ3 [2] was 0.291 OD throughout. Also, the signal/ng with integrin αVβ5 [1] and in the assay with integrin αVβ3 [2] was 30.7 signal/ng throughout.

B9: soluble MICA generated by pKK40 (loop 5.1 in loop 1) (designed binder)
chain: HHHHHHEPHSLRYNLTVLSWDGSVQSGFLTEVHLDGQPFLRCDRQKCRAKPQGQWAEDVLGNKTWDRETRDLTGNGKDLRMTLAHIKDQKEGLHSLQEIRVCEIHEDNSTRSSQHFYYDGELFLSQNLETEEWTMPQSSRAQTLAMNVRNFLKEDAMKTKTHYHAMHADCLQELRRYLKSGVVLRRTVPPMVNVTVTRGDTFTQSVTCRASGFYPWNITLSWRQDGVSLSHDTQQWGDVLPDGNGTYQTWVATRICQGEEQRFTCYMEHSGNHSTHPVPSGK
In the assay with integrin αVβ5 [1], B9 came in with a signal of 0.675 OD and a signal/ng of 27.1 signal/ng. In the assay with integrin αVβ3 [2], this molecule showed a signal of 0.485 OD and a signal/ng of 19.5 signal/ng.

B10: soluble MICA generated by pKK42 (loop 5.3 in loop 1) (designed binder)
chain: HHHHHHEPHSLRYNLTVLSWDGSVQSGFLTEVHLDGQPFLRCDRQKCRAKPQGQWAEDVLGNKTWDRETRDLTGNGKDLRMTLAHIKDQKEGLHSLQEIRVCEIHEDNSTRSSQHFYYDGELFLSQNLETEEWTMPQSSRAQTLAMNVRNFLKEDAMKTKTHYHAMHADCLQELRRYLKSGVVLRRTVPPMVNVTHLARGDDLTYVTCRASGFYPWNITLSWRQDGVSLSHDTQQWGDVLPDGNGTYQTWVATRICQGEEQRFTCYMEHSGNHSTHPVPSGK
In the assay with integrin αVβ5 [1], B10 registered a signal of 0.565 OD and a signal/ng of 22.8 signal/ng. Also, in the assay with integrin αVβ3 [2], the signal was determined as 0.526 OD and the signal/ng was found to be 21.2 signal/ng.

B11: soluble MICA generated by pKK39 (loop 3.4 in loop 1) (designed binder)
chain: HHHHHHEPHSLRYNLTVLSWDGSVQSGFLTEVHLDGQPFLRCDRQKCRAKPQGQWAEDVLGNKTWDRETRDLTGNGKDLRMTLAHIKDQKEGLHSLQEIRVCEIHEDNSTRSSQHFYYDGELFLSQNLETEEWTMPQSSRAQTLAMNVRNFLKEDAMKTKTHYHAMHADCLQELRRYLKSGVVLRRTVPPMVNVTRSARGDSDHRVTCRASGFYPWNITLSWRQDGVSLSHDTQQWGDVLPDGNGTYQTWVATRICQGEEQRFTCYMEHSGNHSTHPVPSGK
With B11, in the assay with integrin αVβ5 [1], the signal worked out at 0.528 OD and the signal/ng turned out to be 19.7 signal/ng. Besides, in the assay with integrin αVβ3 [2], the signal came to 0.482 OD and the signal/ng was 18 signal/ng.

B12: M13 phage pKK91 displaying MICA α3 domain with His10sp in loop 3 (designed binder, not shown: large carriers)
chain: TVPPMVNVTRSEASEGNITVTCRASGFYPWNITLSWRQDGVSLSHDTQQWGDVLPDGNGTYQTWVATRISGGSGGGSHHHHHHHHHHSGGSGGGCYMEHSGNHSTHPVPSGK
Consider B12, for which the signal with integrin αVβ5 [3] amounted to 0.078 OD; with integrin αVβ3 [4] it was 0.303 OD.

B13: soluble MICA generated by pKK44 (extended loop 3.2sp in loop 1) (designed binder)
chain: HHHHHHEPHSLRYNLTVLSWDGSVQSGFLTEVHLDGQPFLRCDRQKCRAKPQGQWAEDVLGNKTWDRETRDLTGNGKDLRMTLAHIKDQKEGLHSLQEIRVCEIHEDNSTRSSQHFYYDGELFLSQNLETEEWTMPQSSRAQTLAMNVRNFLKEDAMKTKTHYHAMHADCLQELRRYLKSGVVLRRTVPPMVNVTSGGSGGGSTSRGDHPRTQSGGSGGGVTCRASGFYPWNITLSWRQDGVSLSHDTQQWGDVLPDGNGTYQTWVATRICQGEEQRFTCYMEHSGNHSTHPVPSGK
Regarding B13, in the assay with integrin αVβ5 [1], the signal came to 0.46 OD and the signal/ng came out at 10 signal/ng. In the assay with integrin αVβ3 [2], the signal was determined as 0.41 OD and the signal/ng stood at 8.92 signal/ng.

B14: soluble MICA generated by pKK45 (extended loop 3.3sp in loop 1) (designed binder)
chain: HHHHHHEPHSLRYNLTVLSWDGSVQSGFLTEVHLDGQPFLRCDRQKCRAKPQGQWAEDVLGNKTWDRETRDLTGNGKDLRMTLAHIKDQKEGLHSLQEIRVCEIHEDNSTRSSQHFYYDGELFLSQNLETEEWTMPQSSRAQTLAMNVRNFLKEDAMKTKTHYHAMHADCLQELRRYLKSGVVLRRTVPPMVNVTSGGSGGGSRVPRGDSDLTSGGSGGGVTCRASGFYPWNITLSWRQDGVSLSHDTQQWGDVLPDGNGTYQTWVATRICQGEEQRFTCYMEHSGNHSTHPVPSGK
With B14, in the assay with integrin αVβ5 [1], the signal worked out at 0.41 OD and the signal/ng was found to be 9.92 signal/ng. For the same molecule, in the assay with integrin αVβ3 [2], the signal was 0.393 OD and the signal/ng stood at 9.51 signal/ng.

B15: soluble MICA generated by pKK41 (loop 5.2 in loop 1) (designed binder)
chain: HHHHHHEPHSLRYNLTVLSWDGSVQSGFLTEVHLDGQPFLRCDRQKCRAKPQGQWAEDVLGNKTWDRETRDLTGNGKDLRMTLAHIKDQKEGLHSLQEIRVCEIHEDNSTRSSQHFYYDGELFLSQNLETEEWTMPQSSRAQTLAMNVRNFLKEDAMKTKTHYHAMHADCLQELRRYLKSGVVLRRTVPPMVNVTRGDTFTQSVTCRASGFYPWNITLSWRQDGVSLSHDTQQWGDVLPDGNGTYQTWVATRICQGEEQRFTCYMEHSGNHSTHPVPSGK
On to B15, for which, in the assay with integrin αVβ5 [1], the signal was found to be 0.65 OD and the signal/ng was 22.4 signal/ng. Further, in the assay with integrin αVβ3 [2], the signal is 0.516 OD and the signal/ng turned out to be 17.7 signal/ng.
